± gives the standard deviation.

The data set is described as follows: protein stability index of a GFP-peptide fusion (GPS, HEK-293T) (PSI 1-6); higher = more stable.
Where [1] appears, read: treatment: DMSO, c terminus: a fixed tail appended.
Setting [2] is: treatment: MLN4924 1 uM, 8 h, c terminus: a fixed tail appended.
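Further: 24-mer peptide tiles fused after GFP, lentivirally expressed, FACS-sorted into six equal bins by GFP/DsRed ratio, decoded by Illumina sequencing, PSI is the read-weighted mean bin number.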

In the case of GAVFNGITLLILAELLIFSVPIVY [RTN3], the protein stability index by setting is: under setting [1], 3.33 ± 0.037; under setting [2], 2.9 ± 0.39. Consider GCECEDGPDGQEMDPPNPEEVKTP [GAGE1], for which the protein stability index amounted to 5.48 ± 0.25 under setting [1] and 5.81 ± 0.14 under setting [2]. The matching figures for GCIAAENCIGIRDFALHYCLHHVH [GAN]: 2.72 ± 0.25 and 2.53 ± 0.33. The matching figures for GCKVPQEALLKLLAGLTRPDVRPP [SEPHS2]: 2.28 ± 0.33 and 2.03 ± 0.29.

Turning to GCTGDEAESRGHSKGWGRNYASII [MYCL], the protein stability index is 3.1 ± 0.13 under setting [1] and 3.2 ± 0.17 under setting [2].

For the sequence GDSHYEIEIVHISTVQILTEGFPP [ZFYVE21], the protein stability index under setting [1] was 2.71 ± 0.8 and the protein stability index under setting [2] was 2.85 ± 0.78. The matching figures for GDVLHAHLDIWKSAAWMKERTSPG [SPDEF]: 2.92 ± 0.48 and 3.06 ± 0.46. The matching figures for GEASYSTIAPTLIADLFVADQRSR [SPNS1]: 3.21 ± 0.39 and 3.29 ± 0.6.

With GEKEVEALKKSADWVSDWSSRPEN [BNIP3L], the protein stability index is 4.78 ± 0.27 under setting [1] and 4.88 ± 0.39 under setting [2]. With GELVLATAISSFTRHVFTCGRRGI [TLE6], the protein stability index reads like this: under setting [1], 2.37 ± 0.31; under setting [2], 2.52 ± 0.52.

Regarding GEREPFAETDEHTGANTKKPEDTA [FAM9B], the protein stability index stood at 5.46 ± 0.22 under setting [1] and 5.54 ± 0.52 under setting [2]. In the same order, the values of GFTNKQLQSGQEYVFFVLAVMEHA [PTPRD] are 2.95 ± 0.76 and 2.39 ± 0.79. On to GGEAAHHTRSPYSTFYPPYHSPEL [NEUROD6], for which the protein stability index under setting [1] amounted to 3.38 ± 0.2 and the protein stability index under setting [2] was 3.58 ± 0.12. For GGGSGSAPGPSRIADYLLLPLAER [TRIB1], the protein stability index under setting [1] stood at 3.62 ± 0.48. Regarding GHEEMVALLLGQGANINAQTEETQ [ANKRD17], the protein stability index runs as follows: under setting [1], 4.81 ± 0.28; under setting [2], 4.96 ± 0.19.

In the case of GHNDWVMDVAISNNKKWILSASKD [WDR88], the protein stability index runs as follows: under setting [1], 3.19 ± 0.33; under setting [2], 3.22 ± 0.59. Take GHNSPLYKRQEESGAAASLNVDAA [CHIT1]: the protein stability index reads like this: under setting [1], 5.19 ± 0.19; under setting [2], 5.11 ± 0.22. As for GIQLLIVEYKDIASIHWDWKIALL [SLC35F2], the protein stability index reads like this: under setting [1], 2.58 ± 0.61; under setting [2], 2.69 ± 0.78.

As to GKKYNWSCDDLMGGGGLHSVGTYI [GFOD1], the protein stability index by setting is: under setting [1], 2.13 ± 0.35; under setting [2], 2.33 ± 0.29. Take GKSILLFGGAAAVAILAVAIGVAL [BCL2L13]: the protein stability index was 2.98 ± 0.057 under setting [1] and 2.87 ± 0.3 under setting [2]. With GKVKLQQNPGKFDELDMSPGDPKW [TBC1D10A], the protein stability index is, setting by setting: under setting [1], 4.51 ± 0.32; under setting [2], 4.83 ± 0.23. GLELALACDIRVAASSAKMGLVET [AUH]: the protein stability index under setting [1] was 2.37 ± 0.77 and the protein stability index under setting [2] amounted to 2.34 ± 0.18. Take GLHVQHMGTSHGITRPSPRRSNSP [CCDC6]: the protein stability index was found to be 4.51 ± 0.17 under setting [1] and 4.57 ± 0.082 under setting [2]. As for GLSAEDGVWAVIISHQQCWASTSP [TRIM15], the protein stability index under setting [1] amounted to 2.88 ± 0.51 and the protein stability index under setting [2] was determined as 2.39 ± 0.73. The matching figures for GLSPSIDTLDHIRALDRLQEVPHE [PPP2CA]: 4.91 ± 0.22 and 4.87 ± 0.14.

For the sequence GMSTIRPNPGFSMLDFLSERPWIK [APMAP], the protein stability index turned out to be 2.62 ± 0.34 under setting [1] and 2.76 ± 0.24 under setting [2]. As to GNDTSPSEGTNLNAPNSLGVSALC [HNF4A], the protein stability index was determined as 4.65 ± 0.18 under setting [1] and 4.76 ± 0.15 under setting [2]. For GPAGPYLLSKKGALQSRAAQRHRG [PLEKHN1], the protein stability index worked out at 4.16 ± 0.48 under setting [1] and 3.98 ± 0.21 under setting [2].

In the case of GPDVLETDGLQEVPLCSCRMETPK [EHMT1], the protein stability index is, setting by setting: under setting [1], 4.16 ± 0.43; under setting [2], 4.29 ± 0.29. Take GPFDLMSRRVIAANNRILAERIAK [IMPA1]: the protein stability index runs as follows: under setting [1], 2.54 ± 0.39; under setting [2], 3.46 ± 0.59. GPHTISNQNNYRLLSCGKILTGCK [ACSBG2]: the protein stability index reads like this: under setting [1], 3.21 ± 0.13; under setting [2], 2.84 ± 0.62. Turning to GPLGDQLHAQLRDLTSSSSDELSW [ELF3], the protein stability index reads like this: under setting [1], 4.04 ± 0.047; under setting [2], 4.18 ± 0.29. For the sequence GPPVGPLSLGLATVDIQNPDITSS [WAS], the protein stability index amounted to 4.68 ± 0.23 under setting [1] and 4.39 ± 0.24 under setting [2]. With GPQLEGEKDWGLEGYVWRGSQLED [ZSWIM9], the protein stability index under setting [1] was 4.52 ± 0.23 and the protein stability index under setting [2] was 4.45 ± 0.28.

On to GPWLEWEIMLQYCFPRLDINVSKG [PRIM1], for which the protein stability index by setting is: under setting [1], 2.4 ± 0.19; under setting [2], 2.88 ± 0.94.

For GREYPDAQGFAADVRLMFSNCYKY [BRD3], the protein stability index came to 2.38 ± 0.21 under setting [1] and 2.59 ± 0.29 under setting [2]. In the same order, the values of GRIACANVLSDLYAMGITECDNML [SEPHS2] are 2.4 ± 0.41 and 2.43 ± 0.32.

For GRQLEKVPEKRDSGMTEVERTYSA [SPATS1], the protein stability index under setting [1] turned out to be 5.22 ± 0.3 and the protein stability index under setting [2] was determined as 5.24 ± 0.4. In turn, GRREGCDICAGKAGCPIVEEPLG [RPS21] displayed a protein stability index (treatment: DMSO, c terminus: native) of 4.03 ± 0.13 and a protein stability index (treatment: MLN4924 1 uM, 8 h, c terminus: native) of 4.33 ± 0.3. Consider GRSNAPITAPTEVEVMDETNCQKV [CSNK1G3], for which the protein stability index is 5.55 ± 0.15 under setting [1] and 5.59 ± 0.13 under setting [2]. In the case of GRYAYVRGGGDPWTNGSGLALCQR [MCOLN1], the protein stability index turned out to be 2.56 ± 0.37 under setting [1] and 3.02 ± 0.2 under setting [2]. The matching figures for GSGAPSPLSKSSPATTVTSPNSTP [SNAP91]: 5.44 ± 0.16 and 5.4 ± 0.16.

For the sequence GSGLSSRFEEPKGPPARQEDSKEL [CBY2], the protein stability index under setting [1] turned out to be 5.35 ± 0.27 and the protein stability index under setting [2] was found to be 5.5 ± 0.25.

For GTDSAGPKTVPSHVFSELWDLSEA [ELOA2], the protein stability index under setting [1] turned out to be 3.95 ± 0.25 and the protein stability index under setting [2] amounted to 4.39 ± 0.38. In the same order, the values of GTPMGTFAPLWEVFRVSSDKLALC [FCHO1] are 2.23 ± 0.63 and 2.17 ± 0.41. The matching figures for GVIRMWADEGSRNSRFQMLFTSFQ [NETO1]: 2.34 ± 0.4 and 2.27 ± 0.28.

Consider GVKFVGLFIILQVGLNTIADLWYL [POMT2], for which the protein stability index was 3.52 ± 0.1 under setting [1] and 2.9 ± 1.2 under setting [2]. In turn, GVSREEIEREVNILREIRHPNIIT [DAPK3] gave a protein stability index under setting [1] of 2.38 ± 0.42.

For GYKEFFMKCQSYCEPPSYRPMHHE [CDC25A], the protein stability index reads like this: under setting [1], 2.49 ± 0.15; under setting [2], 2.42 ± 0.34. In the same order, the values of GYRVSAALEEADKMFLRTREPALD [EID1] are 3.9 ± 0.27 and 3.89 ± 0.3. In the same order, the values of HDAQVRLYKEELEQTYHAKLENAR [LMNB1] are 3.99 ± 0.34 and 4.13 ± 0.14.

Regarding HDTKDQSPSRAPGLRQRASNKVQD [HMOX1], the protein stability index is, setting by setting: under setting [1], 5.58 ± 0.24; under setting [2], 5.29 ± 0.14. In the same order, the values of HEPPFHLDREIRLQRLSHSGSRVR [SCNN1D] are 4.27 ± 0.13 and 4.31 ± 0.21.

On to HESSGNPPLRVIVKDALFCSCLSD [RHOBTB3], for which the protein stability index reads like this: under setting [1], 3.11 ± 0.25; under setting [2], 3.24 ± 0.12. The matching figures for HGAHKAEKKLFECLTCGKSFRQGM [ZNF263]: 2.67 ± 0.27 and 2.78 ± 0.25. In the same order, the values of HHLDEDEERERIERVRRIHIKRPD [KCTD10] are 5.09 ± 0.34 and 5.19 ± 0.076. As for HKHVVQFYHYFEDKENIYILLEYC [PLK2], the protein stability index worked out at 2.63 ± 0.43 under setting [1] and 2.37 ± 0.71 under setting [2]. Consider HKLDLNTREWTQLKPNNLSCDLPE [KLHDC10], for which the protein stability index by setting is: under setting [1], 4.4 ± 0.12; under setting [2], 4.41 ± 0.3. With HLLGIPHSVLQIRYSGKILKNNET [IQUB], the protein stability index stood at 2.77 ± 0.41 under setting [1] and 2.32 ± 0.38 under setting [2].

For HLNETVKAPDIECVLRCSVLEIEQ [FEM1B], the protein stability index came to 3.07 ± 0.49 under setting [1] and 3.13 ± 0.44 under setting [2]. The matching figures for HLYLLRGLPGSGKTTLARQLQHDF [N4BP2L1]: 2.35 ± 0.47 and 2.27 ± 0.29.

As for HNSINQSLDESVIYGPGNLSTNNN [SLC2A12], the protein stability index reads like this: under setting [1], 4.68 ± 0.34; under setting [2], 4.7 ± 0.055. The matching figures for HNYNILIATLRVALPSVMRFCCCV [MCOLN1]: 2.83 ± 0.59 and 2.9 ± 0.48. HPVLHKEEKQHLERLNKEYQEIFQ [TRIM43]: the protein stability index is 3.9 ± 0.47 under setting [1] and 4.06 ± 0.4 under setting [2]. In the same order, the values of HQKLEREARICRLLKHSNIVRLHD [CAMK2B] are 2.58 ± 0.17 and 2.66 ± 0.43. The matching figures for HSCTCVLYTPSNEHFGIVPLEAMY [ALG2]: 2.43 ± 0.38 and 2.41 ± 0.22. The matching figures for HTPSDTGVSFQAISSMADFWDFAQ [PKD2L1]: 2.85 ± 0.36 and 3.01 ± 0.35. Consider HVEEHFQLLARRMQVDKKRVYLAT [FUT8], for which the protein stability index by setting is: under setting [1], 2.32 ± 0.14; under setting [2], 2.29 ± 0.45. The matching figures for HVLIHNTLQQLQAALRLAPAPALP [SERTAD3]: 2.51 ± 0.47 and 2.55 ± 0.2. Sequence HVPEGFDPTGPAGLGRPTPGLSQG [EHMT1] showed a protein stability index under setting [1] of 4.4 ± 0.27 and a protein stability index under setting [2] of 4.51 ± 0.11. In the same order, the values of HYRASEEEPEYGEEIKGYPGVQAP [CHGB] are 4.64 ± 0.23 and 5.04 ± 0.36. With IAVKTLGIGKNVICDRTATPLDAF [GFOD1], the protein stability index came to 2.43 ± 0.14 under setting [1] and 2.53 ± 0.17 under setting [2].

(Values after the supplement of paper PMC10567573.)
